# Reference: US20040186053A1
# Where a chain is given by its changes, count along the chain named. In names and notes the source's numbering stands.
# B1: human protein Z-dependent protease inhibitor (ZPI), purified from human plasma (protein)
# chain: LAPSPQSPETPAPQNQTSRVVQAPKEEEEDEQEASEEKASEEEKAWLMASRQQLAKETSNFGFSLLRKISMRHDGNMVFSPFGMSLAMTGLMLGATGPTETQIKRGLHLQALKPTKPGLLPSLFKGLRETLSRNLELGLTQGSFAFIHKDFDVKETFFNLSKRYFDTECVPMNFRNASQAKRLMNHYINKETRGKIPKLFDEINPETKLILVDYILFKGKWLTPFDPVFTEVDTFHLDKYKTIKVPMMYGAGKFASTFDKNFRCHVLKLPYQGNATMLVVLMEKMGDHLALEDYLTTDLVETWLRNMKTRNMEVFFPKFKLDQKYEMHELLRQMGIRRIFSPFADLSELSATGRNLQVSRVLQRTVIEVDERGTEAVAGILSEITAYSMPPVIKVDRPFHFMIYEETSGMLLFLGRVVNPTLL
# modifications: Plasma glycoprotein with five potential N-linked glycosylation sites; the glycans are not carried by the letters.
# B2: rZPI(Y387R), recombinant ZPI with tyrosine 387 changed to arginine (protein, UniProt Q9UK55 22-444 with Y387R, looked up)
# Protein Z-dependent protease inhibitor: B1 chain with Y387R
# B3: rZPI(Y387A), recombinant ZPI with tyrosine 387 changed to alanine (protein, UniProt Q9UK55 22-444 with Y387A, looked up)
# Protein Z-dependent protease inhibitor: B1 chain with Y387A
# B4: rZPI(WT), recombinant wild-type ZPI expressed in CHO cells (protein, UniProt Q9UK55 22-444, looked up)
# Protein Z-dependent protease inhibitor: B1 chain
# How the values were obtained:
# factor Xa [1] = molecular target: factor Xa (UniProt P00742); experiment: cell-based or functional assay
# factor Xa [2] = molecular target: factor Xa (UniProt P00742); experiment: cell-based or functional assay; remark: listed apart in the source
molecule,measurement,setting,value
antithrombin III (from UniProt P01008 33-464),"t1/2 of inhibition of factor Xa by antithrombin III with PZ, cephalin and Ca++ ions (bioassay)",factor Xa [1],35 min
"human protein Z (PZ), isolated from citrated fresh frozen plasma (from UniProt P22891 41-400)","Apparent Inhibition (%) of factor Xa, one-stage coagulation assay; incubation factor Xa 15 sec, PZ 120 sec",factor Xa [1],70%
same,"Apparent Inhibition (%) of factor Xa, one-stage coagulation assay; incubation factor Xa 30 sec, PZ 120 sec",factor Xa [1],71%
same,"Apparent Inhibition (%) of factor Xa, one-stage coagulation assay; incubation factor Xa 60 sec, PZ 120 sec",factor Xa [1],73%
same,"Apparent Inhibition (%) of factor Xa, one-stage coagulation assay; incubation factor Xa 90 sec, PZ 120 sec",factor Xa [1],76%
same,"Apparent Inhibition (%) of factor Xa, one-stage coagulation assay; incubation factor Xa 120 sec, PZ 0 sec",factor Xa [1],0%
same,"Apparent Inhibition (%) of factor Xa, one-stage coagulation assay; incubation factor Xa 120 sec, PZ 15 sec",factor Xa [1],50%
same,"Apparent Inhibition (%) of factor Xa, one-stage coagulation assay; incubation factor Xa 120 sec, PZ 30 sec",factor Xa [1],61%
same,"Apparent Inhibition (%) of factor Xa, one-stage coagulation assay; incubation factor Xa 120 sec, PZ 60 sec",factor Xa [1],72%
same,"Apparent Inhibition (%) of factor Xa, one-stage coagulation assay; incubation factor Xa 120 sec, PZ 90 sec",factor Xa [1],76%
same,"Apparent Inhibition (%) of factor Xa, one-stage coagulation assay; incubation factor Xa 120 sec, PZ 120 sec",factor Xa [1],78%
same,"Apparent Inhibition (%) of factor Xa, one-stage coagulation assay; incubation factor Xa 120 sec, PZ 120 sec w/o Ca++",factor Xa [1],0%
same,"Apparent Inhibition (%) of factor Xa, one-stage coagulation assay; incubation factor Xa 120 sec, PZ 120 sec w/o cephalin",factor Xa [1],0%
same,"Apparent factor Xa inhibition by inclusion of PZ during preincubation, plasma treated with preimmune IgG (clotting time)",factor Xa [1],76%
same,"molar ratio (PZ:factor Xa) from PZ dose/response of ZPI-mediated factor Xa inhibition, amidolytic assay (mol PZ per mol factor Xa)",factor Xa [1],1.4
thrombin-cleaved PZ (PZT) (from UniProt P22891 84-400),"Apparent Inhibition (%) of factor Xa, one-stage coagulation assay; incubation factor Xa 120 sec, PZT 120 sec",factor Xa [1],0%
tissue factor pathway inhibitor (TFPI) (from UniProt P10646 29-304),inhibition of the chromogenic activity of the factor Xa preparations,factor Xa [1],> 99%
B1,"Maximal factor Xa inhibition, amidolytic assay, reached within <1 minute (with PZ, Ca++ ions, cephalin)",factor Xa [2],70%
same,"Maximal factor Xa inhibition, bioassay, reached within <1 minute (with PZ, Ca++ ions, cephalin)",factor Xa [2],97%
same,factor Xa amidolytic activity that persists at relatively high concentrations of ZPI,factor Xa [2],20%
same,"stoichiometry (ZPI:factor Xa) from ZPI dose/response, factor Xa amidolytic assay with PZ, CaCl2 and cephalin (mol ZPI per mol factor Xa)",factor Xa [2],1.2
B2,"ZPI activity of conditioned media, two-stage assay of PZ-dependent factor Xa inhibition",factor Xa [2],21 mU/mL
B3,"ZPI activity of conditioned media, two-stage assay of PZ-dependent factor Xa inhibition",factor Xa [2],< 10 mU/mL
B4,"ZPI activity of conditioned media, two-stage assay of PZ-dependent factor Xa inhibition",factor Xa [2],375 mU/mL
